These results are taken from article doi:10.1101/2023.04.12.536585, “Allosteric activation or inhibition of PI3Kγ mediated through conformational changes in the p110γ helical domain” (bioRxiv, 2023).

Experiment in all cases: BLI; His-tagged NB7 (500 nM) immobilised on Anti-Penta-His biosensor, dipped into PI3K in solution; dose response 50-1.9 nM for p110γ, p110γ-p84, p110γ-p101; 50 nM for the class IA comparison; 25 nM for phosphorylated and non-phosphorylated p110γ; Octet buffer 20 mM Tris pH 8.5, 100 mM NaCl, 50 mM ammonium sulfate, 0.1% BSA, 0.02% Tween 20; global fit to a 1:1 model
Details in all cases: both partners purified
(In general: BLI is a label-free optical method that tracks binding on a fibre tip over time.)

In test [1] the target is T1, p110γ-p84 complex (human p110γ, mouse p84) (Homo sapiens p110γ; Mus musculus p84, UniProt P48736;Q3U6Q4).
T1 construct: p110γ catalytic subunit, human; plasmid pMultiBac-hsp110γ-mmp84 (MR24); p84 regulatory subunit of PI3Kγ, Mus musculus; The tag stood on p84 for purification and was cleaved by TEV on the column; also called p110/p84; not shown: 10xHis, N-terminal, cleaved; 2xStrep, N-terminal, cleaved

In test [2] the target is T2, p110γ-p101 complex (human p110γ, porcine p101) (Homo sapiens p110γ; Sus scrofa p101, UniProt P48736;O02696).
T2 construct: p110γ catalytic subunit, human; plasmid pMultiBac-hsp110γ-ssp101 (MR22); full length p110γ in the p110γ-p101 model PDB 7MEZ; p101 regulatory subunit of PI3Kγ, Sus scrofa; The tag stood on p101 for purification and was cleaved by TEV on the column; also called p110/p101; not shown: 10xHis, N-terminal, cleaved; 2xStrep, N-terminal, cleaved

The next test deals with T3, p110α-p85α complex (Homo sapiens (assumed), UniProt P42336;P27986).
T3 construct: p110α class IA PI3K catalytic subunit; plasmid pFASTBac p110α (pOV1181); p85α class IA regulatory subunit; Plasmids as described in Dornan et al., 2017 and Siempelkamp et al., 2017; also called PI3Kα; source: PI3Kα gel filtration buffer

In a further test the target is T4, p110δ-p85β complex (Homo sapiens (assumed), UniProt O00329;O00459).
T4 construct: p110δ class IA PI3K catalytic subunit; plasmid pFASTBac p110δ (pOV1183); p85β class IA regulatory subunit; also called PI3Kδ; source: PI3Kα gel filtration buffer

The target in the next test is T5, p110β-p85β complex (Homo sapiens (assumed), UniProt P42338;O00459).
T5 construct: p110β class IA PI3K catalytic subunit; plasmid pFASTBac p110β (pOV1182); p85β class IA regulatory subunit; also called PI3Kβ; source: PI3Kα gel filtration buffer

T4 sequence (O00329 whole entry, stated change not applied, chain 1 of 2): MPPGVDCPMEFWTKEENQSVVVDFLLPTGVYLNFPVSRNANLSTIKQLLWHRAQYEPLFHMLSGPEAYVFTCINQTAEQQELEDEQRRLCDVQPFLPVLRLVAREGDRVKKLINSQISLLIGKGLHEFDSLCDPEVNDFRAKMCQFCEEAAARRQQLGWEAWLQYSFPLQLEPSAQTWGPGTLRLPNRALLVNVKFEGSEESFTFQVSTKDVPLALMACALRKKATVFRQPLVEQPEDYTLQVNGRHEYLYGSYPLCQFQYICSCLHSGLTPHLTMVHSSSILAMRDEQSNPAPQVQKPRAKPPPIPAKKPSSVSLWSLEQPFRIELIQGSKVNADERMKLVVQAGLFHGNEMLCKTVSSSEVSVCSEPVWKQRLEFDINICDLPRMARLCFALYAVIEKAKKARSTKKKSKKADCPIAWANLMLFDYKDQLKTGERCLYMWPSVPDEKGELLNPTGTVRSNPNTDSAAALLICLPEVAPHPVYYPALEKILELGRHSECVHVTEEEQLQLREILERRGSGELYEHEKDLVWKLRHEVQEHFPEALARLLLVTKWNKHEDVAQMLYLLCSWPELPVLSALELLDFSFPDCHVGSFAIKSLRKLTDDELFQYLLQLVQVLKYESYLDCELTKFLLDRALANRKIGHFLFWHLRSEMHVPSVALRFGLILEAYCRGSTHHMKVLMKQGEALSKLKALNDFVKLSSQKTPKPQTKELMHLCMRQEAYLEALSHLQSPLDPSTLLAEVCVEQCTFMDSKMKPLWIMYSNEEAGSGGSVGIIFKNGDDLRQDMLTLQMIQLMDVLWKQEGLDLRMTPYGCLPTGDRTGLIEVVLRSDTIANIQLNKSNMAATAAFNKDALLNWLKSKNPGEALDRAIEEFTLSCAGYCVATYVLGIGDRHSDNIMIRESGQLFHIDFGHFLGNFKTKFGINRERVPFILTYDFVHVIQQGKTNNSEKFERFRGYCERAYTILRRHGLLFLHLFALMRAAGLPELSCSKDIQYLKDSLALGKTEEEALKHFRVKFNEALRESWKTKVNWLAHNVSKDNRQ
T4 sequence (O00459 whole entry, stated change not applied, chain 2 of 2): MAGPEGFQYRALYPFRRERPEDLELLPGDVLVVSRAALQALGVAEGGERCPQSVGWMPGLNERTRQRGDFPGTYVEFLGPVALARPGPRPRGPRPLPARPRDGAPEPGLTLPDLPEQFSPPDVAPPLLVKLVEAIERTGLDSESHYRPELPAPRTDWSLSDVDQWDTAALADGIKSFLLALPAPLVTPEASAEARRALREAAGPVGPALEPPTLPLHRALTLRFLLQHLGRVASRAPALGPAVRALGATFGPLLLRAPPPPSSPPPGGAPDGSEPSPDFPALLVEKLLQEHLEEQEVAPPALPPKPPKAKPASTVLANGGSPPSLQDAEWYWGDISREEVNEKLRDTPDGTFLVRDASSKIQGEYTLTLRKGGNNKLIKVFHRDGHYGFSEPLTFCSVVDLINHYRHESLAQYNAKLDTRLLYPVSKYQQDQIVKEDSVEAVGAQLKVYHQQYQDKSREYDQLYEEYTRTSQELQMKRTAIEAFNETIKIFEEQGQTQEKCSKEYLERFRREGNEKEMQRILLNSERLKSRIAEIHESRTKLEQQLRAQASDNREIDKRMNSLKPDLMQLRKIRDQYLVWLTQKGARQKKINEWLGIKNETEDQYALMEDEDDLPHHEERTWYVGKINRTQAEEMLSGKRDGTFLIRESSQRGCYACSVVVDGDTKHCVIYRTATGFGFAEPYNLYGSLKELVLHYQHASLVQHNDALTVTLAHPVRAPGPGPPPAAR
T2 sequence (P48736 whole entry, chain 1 of 2): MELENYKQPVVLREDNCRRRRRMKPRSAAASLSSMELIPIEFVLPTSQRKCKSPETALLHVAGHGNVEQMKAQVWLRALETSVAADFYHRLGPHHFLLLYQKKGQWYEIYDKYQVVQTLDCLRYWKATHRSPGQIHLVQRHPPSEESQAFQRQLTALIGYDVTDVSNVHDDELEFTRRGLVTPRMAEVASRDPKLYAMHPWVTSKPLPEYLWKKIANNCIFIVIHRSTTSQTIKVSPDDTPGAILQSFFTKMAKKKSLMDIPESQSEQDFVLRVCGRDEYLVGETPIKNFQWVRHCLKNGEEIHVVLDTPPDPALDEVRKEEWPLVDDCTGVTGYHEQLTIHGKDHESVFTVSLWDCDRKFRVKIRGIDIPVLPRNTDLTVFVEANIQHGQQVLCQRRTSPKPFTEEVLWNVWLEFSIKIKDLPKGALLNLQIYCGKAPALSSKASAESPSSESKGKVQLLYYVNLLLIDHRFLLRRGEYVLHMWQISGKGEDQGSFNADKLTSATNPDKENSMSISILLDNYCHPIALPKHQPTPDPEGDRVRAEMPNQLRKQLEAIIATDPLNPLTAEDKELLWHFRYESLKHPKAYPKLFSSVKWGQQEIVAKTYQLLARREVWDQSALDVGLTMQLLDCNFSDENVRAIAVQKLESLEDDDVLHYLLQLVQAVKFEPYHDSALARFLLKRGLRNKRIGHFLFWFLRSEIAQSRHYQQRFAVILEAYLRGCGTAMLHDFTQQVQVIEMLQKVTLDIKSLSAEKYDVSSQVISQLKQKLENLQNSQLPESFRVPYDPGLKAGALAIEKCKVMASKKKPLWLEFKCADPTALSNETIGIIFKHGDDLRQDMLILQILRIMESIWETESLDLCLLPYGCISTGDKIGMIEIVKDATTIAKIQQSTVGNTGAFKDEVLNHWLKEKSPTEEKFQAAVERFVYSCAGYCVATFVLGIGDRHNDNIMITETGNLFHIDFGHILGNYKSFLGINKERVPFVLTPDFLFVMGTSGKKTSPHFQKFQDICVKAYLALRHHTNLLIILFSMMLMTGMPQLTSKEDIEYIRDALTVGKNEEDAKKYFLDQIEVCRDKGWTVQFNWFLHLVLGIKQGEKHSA
T2 sequence (O02696 whole entry, chain 2 of 2): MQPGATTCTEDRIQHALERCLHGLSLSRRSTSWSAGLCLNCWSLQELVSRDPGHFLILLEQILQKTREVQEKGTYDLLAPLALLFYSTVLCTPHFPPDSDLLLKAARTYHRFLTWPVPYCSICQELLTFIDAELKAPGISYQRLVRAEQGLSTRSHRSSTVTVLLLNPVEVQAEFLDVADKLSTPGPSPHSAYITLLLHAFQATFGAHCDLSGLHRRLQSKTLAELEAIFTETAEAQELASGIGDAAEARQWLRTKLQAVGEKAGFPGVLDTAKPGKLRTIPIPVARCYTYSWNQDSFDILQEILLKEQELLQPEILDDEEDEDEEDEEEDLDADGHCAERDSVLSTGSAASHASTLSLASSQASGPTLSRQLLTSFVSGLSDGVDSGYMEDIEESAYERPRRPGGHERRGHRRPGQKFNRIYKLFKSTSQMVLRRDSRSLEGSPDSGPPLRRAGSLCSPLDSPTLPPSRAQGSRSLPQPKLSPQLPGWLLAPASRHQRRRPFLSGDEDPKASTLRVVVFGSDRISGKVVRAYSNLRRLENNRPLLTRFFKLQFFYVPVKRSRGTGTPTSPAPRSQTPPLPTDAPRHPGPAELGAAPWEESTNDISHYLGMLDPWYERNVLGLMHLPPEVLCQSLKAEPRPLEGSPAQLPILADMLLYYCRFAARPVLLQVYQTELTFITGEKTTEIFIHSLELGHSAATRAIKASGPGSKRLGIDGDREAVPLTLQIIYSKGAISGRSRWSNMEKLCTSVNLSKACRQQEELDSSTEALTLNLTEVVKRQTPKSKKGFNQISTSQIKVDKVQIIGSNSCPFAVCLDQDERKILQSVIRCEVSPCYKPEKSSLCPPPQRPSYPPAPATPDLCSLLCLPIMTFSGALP
T1 sequence (P48736 whole entry, chain 1 of 2): as the sequence (P48736 whole entry, chain 1 of 2) above
T1 sequence (Q3U6Q4 whole entry, chain 2 of 2): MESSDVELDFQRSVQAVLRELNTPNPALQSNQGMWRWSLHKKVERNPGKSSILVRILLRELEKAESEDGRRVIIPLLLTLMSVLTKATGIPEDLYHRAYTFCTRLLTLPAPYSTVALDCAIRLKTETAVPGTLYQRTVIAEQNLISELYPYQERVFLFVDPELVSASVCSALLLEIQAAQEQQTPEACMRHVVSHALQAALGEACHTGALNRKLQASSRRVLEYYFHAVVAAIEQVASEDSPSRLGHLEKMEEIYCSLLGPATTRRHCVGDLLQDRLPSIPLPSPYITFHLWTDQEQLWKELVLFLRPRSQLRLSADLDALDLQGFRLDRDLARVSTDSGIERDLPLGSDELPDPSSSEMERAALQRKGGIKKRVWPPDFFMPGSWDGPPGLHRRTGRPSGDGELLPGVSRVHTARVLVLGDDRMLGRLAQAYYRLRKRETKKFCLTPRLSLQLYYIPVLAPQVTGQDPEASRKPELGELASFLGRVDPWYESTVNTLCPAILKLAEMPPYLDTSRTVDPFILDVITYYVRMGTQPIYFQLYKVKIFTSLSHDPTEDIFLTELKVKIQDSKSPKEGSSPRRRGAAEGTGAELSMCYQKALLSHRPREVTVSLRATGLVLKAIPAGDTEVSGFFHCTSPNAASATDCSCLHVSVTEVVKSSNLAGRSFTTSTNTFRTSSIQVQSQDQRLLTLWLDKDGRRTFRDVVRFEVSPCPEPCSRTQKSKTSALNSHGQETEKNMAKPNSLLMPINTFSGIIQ

B1: Nanobody NB7-PIK3CG (VHH)
VHH: QVQLVESGGGLVQPGGSLRLSCAASGSIFSINAMGWYRQAPGKQRELVAHITSGGSTNYADSVKGRFTISRDNAKNTVYLQMNSLKPEDTAVYYCNEAGDPFLGSTWNGPPAFGSWGQGTQVTVSS
notes: Identified earlier (Rathinaswamy et al., 2021b); also called His-NB7; nanobody 7; source: E. coli WK6 periplasm (pMESy4 vector), purified (Ni-NTA, SEC); not shown: His6, C-terminal, kept
Usually Kd stands for the equilibrium constant for the complex coming apart. As to B1, the Kd in test [1] and in test [2] was about 2 nM throughout. Besides, the binding result in the test with p110α-p85α complex, with p110δ-p85β complex and with p110β-p85β complex was “no binding (tested: 50 nM)” each time.
